Results on 167 variants are retold here after the RNAGym collection of RNA variant scans (doi:10.7554/elife.80360).

B1: Twister Ribozyme (parent)
chain: AACACUGCCAAUGCCGGUCCCAAGCCCGGAUAAAAGUGGAGGGGGCGG

The variants in the series derive from B1. As to the kind of experiment: self-cleavage, relative activity (ratio to wild type); higher = more cleavage; co-transcriptional.
On to G38A C46U, for which the self-cleavage turned out to be 0.877. In the case of G38A G48C it was 1.04. On to G38A G48A, for which the self-cleavage is 0.998. Regarding G36C G42U, the self-cleavage turned out to be 0.145. For the variant A40G G47C, the self-cleavage stood at 0.192. As for A40G G47A, the self-cleavage was 0.102. The same measure for G38C G45A: 0.736. Regarding G38U G47U, the self-cleavage came out at 0.813. Take G38U G47C: the self-cleavage came to 0.228. As for G43U G44A, the self-cleavage turned out to be 0.722. G43U G44U: the self-cleavage was determined as 0.398. In the case of G43U G44C it was 0.767; in that of A35U G48A, 1.02; in that of A40U G41U, 0.145.

For the variant A40U G41C, the self-cleavage was 0.17. Regarding U37C G47A, the self-cleavage worked out at 0.478. With U37C G47U, the self-cleavage came to 0.585.

G43A C46U: the self-cleavage came out at 0.315. In the case of G43A C46G, the self-cleavage stood at 0.367. For G36C G44C, the self-cleavage turned out to be 0.402. On to G36C G44U, for which the self-cleavage was 0.512.

Turning to A40U G47A, the self-cleavage stood at 0.164. As for A40G G42A, the self-cleavage is 0.113. The same measure for A40G G42C: 0.215; for G42A G48A: 0.296.

Turning to G42A G48U, the self-cleavage came out at 0.397. With G42C G48U, the self-cleavage came out at 0.561.

As for G41U C46G, the self-cleavage was found to be 0.509.

As for G41U C46U, the self-cleavage amounted to 0.68.

Take U37G G47U: the self-cleavage came out at 0.724. For the variant G43U C46A, the self-cleavage was determined as 0.271.

For G43U C46U, the self-cleavage stood at 0.426.

On to G43U C46G, for which the self-cleavage amounted to 0.409.

G39U G43C: the self-cleavage came out at 0.132.

As to G39U G43A, the self-cleavage was 0.138. The same measure for G39C G42A: 0.148; for G39C G42C: 0.129. For the variant G39C G42U, the self-cleavage came out at 0.144. As for G43C C46A, the self-cleavage was found to be 0.111.

On to G43C C46G, for which the self-cleavage amounted to 0.174.

In the case of G38A G44C, the self-cleavage was 0.932. As to G43U G47U, the self-cleavage was determined as 0.137.

For G43U G47A, the self-cleavage came out at 0.201. For G43U G47C, the self-cleavage was determined as 0.177. Consider G39U C46U, for which the self-cleavage worked out at 0.23. With G39U C46A, the self-cleavage came to 0.19. For G39U C46G, the self-cleavage was 0.172. For U37G G44A, the self-cleavage came to 0.703. Regarding U37G G44C, the self-cleavage was determined as 0.669. Turning to G41U G43U, the self-cleavage was determined as 0.147. For the variant G39A, the self-cleavage was found to be 0.568. Consider G39C, for which the self-cleavage is 0.158. As for G39U, the self-cleavage is 0.232. Turning to G41A G47U, the self-cleavage was 0.236. Consider G36A G45A, for which the self-cleavage is 0.714.

Turning to G36A G45U, the self-cleavage was 0.579.

Turning to A40G G43U, the self-cleavage is 0.136. On to A40G G43C, for which the self-cleavage worked out at 0.135.

With G42A G44C, the self-cleavage stood at 0.178. In the case of G42A G44U, the self-cleavage stood at 0.173. In the case of G42A G44A, the self-cleavage stood at 0.377. For the variant G36U G47U, the self-cleavage stood at 0.412. With G36U G47A, the self-cleavage amounted to 0.272.

Take G36U G47C: the self-cleavage was found to be 0.198. In the case of G39C G47C it was 0.167.

Take G39C G47U: the self-cleavage turned out to be 0.163. In the case of G42C G45A, the self-cleavage stood at 0.329. In the case of G42C G45C it was 0.131. In the case of G36C G41C it was 0.141; in that of G36C G41U, 0.0915.

Consider G36C G41A, for which the self-cleavage is 0.134. The same measure for G39A G48C: 0.532; for G38A G47A: 0.882; for G36U G48A: 0.43.

In the case of G36U G48C, the self-cleavage was 0.514. With G38C G44C, the self-cleavage was determined as 0.853. Take G38C G44A: the self-cleavage came out at 0.826.

Take G38C G44U: the self-cleavage came out at 1.02. As for G39A G41C, the self-cleavage is 0.126. Turning to G36C G47U, the self-cleavage was 0.376. On to G36C G47C, for which the self-cleavage amounted to 0.171. Consider U37C G39C, for which the self-cleavage stood at 0.0703. U37C G39A: the self-cleavage is 0.219.

As to G41C G42A, the self-cleavage stood at 0.125. As to G41C G42U, the self-cleavage is 0.167. As for G41C G42C, the self-cleavage worked out at 0.129. Turning to U37C G48U, the self-cleavage is 0.881. Regarding U37C G48C, the self-cleavage is 0.843. Take G42U G48U: the self-cleavage was 0.451.

G42U G48A: the self-cleavage was 0.25. For U37C G45U, the self-cleavage was 0.515. On to G42U C46U, for which the self-cleavage was 0.383. Take G42U C46G: the self-cleavage was 0.309.

Take G36C A40G: the self-cleavage is 0.0963. The same measure for G36C A40C: 0.15. On to G36A G39C, for which the self-cleavage was 0.115. Turning to G36A G39A, the self-cleavage came to 0.195. For the variant G36C G45A, the self-cleavage was found to be 0.37. As for G43C G44A, the self-cleavage came to 0.469. On to G43C G44C, for which the self-cleavage turned out to be 0.686. Regarding G36A G48A, the self-cleavage is 0.639.

Take G41C C46A: the self-cleavage stood at 0.254. In the case of G41C C46G it was 0.286; in that of G36A G38C, 0.327; in that of G41A G48U, 0.511. Turning to G43A G45A, the self-cleavage was determined as 0.318. As to G43A G45U, the self-cleavage came out at 0.305. Regarding G43U G45U, the self-cleavage amounted to 0.358.

With G43U G45A, the self-cleavage is 0.614.

In the case of A40G G45A, the self-cleavage was 0.146. With G36U G43U, the self-cleavage turned out to be 0.15.

Turning to A40C C46A, the self-cleavage was 0.202. On to U37C G38C, for which the self-cleavage was found to be 0.742.

As to U37C G38U, the self-cleavage was determined as 0.516. On to U37A G48U, for which the self-cleavage was determined as 0.811. Take G36A A40C: the self-cleavage came to 0.115. The same measure for G39C G41U: 0.122. With U37C G43U, the self-cleavage was found to be 0.106. On to U37C G43C, for which the self-cleavage came out at 0.102. Turning to U37C G43A, the self-cleavage worked out at 0.142. Take G41A G44C: the self-cleavage was 0.205. G41A G44U: the self-cleavage is 0.228. The same measure for G41A G44A: 0.483; for G42C C46A: 0.289; for G38U G48C: 1.05. Consider U37A G47C, for which the self-cleavage was 0.292. As to U37A G47U, the self-cleavage was 0.702. Take U37G G48A: the self-cleavage was determined as 0.844. For the variant U37G G48C, the self-cleavage stood at 0.843. Turning to U37G C46A, the self-cleavage is 0.619. For the variant G41U G45U, the self-cleavage was 0.25. G39U G48C: the self-cleavage was 0.265.

As to G39U G48A, the self-cleavage was determined as 0.156. As for G43A G48U, the self-cleavage was determined as 0.291. In the case of G43A G48A, the self-cleavage was found to be 0.244.

Regarding G43A G48C, the self-cleavage is 0.354.

Regarding G36C C46U, the self-cleavage stood at 0.585. The same measure for G39A G47U: 0.238; for G39A G47C: 0.137; for G42C G47A: 0.43.

G42C G47U: the self-cleavage stood at 0.491. In the case of G42C G47C, the self-cleavage came out at 0.467. Regarding G41U G44C, the self-cleavage worked out at 0.218.

In the case of G39A G44A, the self-cleavage was determined as 0.339. In the case of U37A G45A, the self-cleavage turned out to be 0.835. For U37A G45U, the self-cleavage was 0.617. G38A A40C: the self-cleavage came out at 0.129. In the case of G39U G47U, the self-cleavage amounted to 0.187.

For G36A G43U, the self-cleavage is 0.147. Take G36A G43A: the self-cleavage stood at 0.14.

For the variant U37A A40C, the self-cleavage was 0.127. Regarding U37A A40G, the self-cleavage was found to be 0.165.

Turning to U37A A40U, the self-cleavage is 0.137. In the case of G36A C46A, the self-cleavage was 0.582. In the case of G39C G43U, the self-cleavage was found to be 0.112. Take G39C G43C: the self-cleavage was 0.0898. In the case of G42A it was 0.516; in that of G42U, 0.445.

Regarding G42C, the self-cleavage amounted to 0.622. For the variant A35U G47U, the self-cleavage came to 0.893.

For A35U G47A, the self-cleavage turned out to be 0.899.

With A35U U37A, the self-cleavage is 0.834. Take A40C G41C: the self-cleavage was found to be 0.15. In the case of G42U G47C it was 0.224; in that of G42U G47U, 0.296; in that of G41C G47U, 0.149.

Regarding G36C G43C, the self-cleavage worked out at 0.0794.
